Experimental data reported in PMC9361567.
Values joined by “and” are separate entries in the source; they are usually repeats but may differ in a detail not shown here. Identical values can stand only once.

Key:
[1] = molecular target: KHC^Δh2 + LC (Drosophila) (UniProt P17210); assay: BLI
[2] = molecular target: KHC + LC (Kinesin-1 HC-LCs complex) (Drosophila) (UniProt P17210); assay: BLI
[3] = molecular target: HALO::PLP^584-1811 WT (purified from Sf9) (Drosophila); assay: mass photometry

## HALO::PLP^584-1811 WT (purified from Sf9) (domain or fragment)
[1]
  Kd: 65 nM
[2]
  Kd: 1700 nM
[3]
  stoichiometry N: 2 and 4
